Here are results for 22 molecules from PMC314469, “Protein Interaction Networks by Proteome Peptide Scanning” (PLoS Biology, 2004).

The labels stand for the following.
T1: Myo5 SH3 (MYO5_YEAST), Q04439
T1 chain: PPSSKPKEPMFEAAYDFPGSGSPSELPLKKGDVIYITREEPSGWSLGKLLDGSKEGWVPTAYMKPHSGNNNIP

In the experiment the target is T1, Myo5 SH3 (MYO5_YEAST), Q04439. Put plainly: SPOT array.
In the case of IEPDFIEPDAPLAA [YGL198W 10-23], the normalised SPOT signal, Boehringer light units (BLU); mean over the file's lines of this peptide came out at 61.4.
The same measure for ILSAYNSPKVPADI [YGR175C 270-283]: 81.4.
For IEVPMEYPFKPPKM [YDR177W 56-69], the normalised SPOT signal, Boehringer light units (BLU); mean over the file's lines of this peptide was 384.
In turn, HPIHLQPPVPPVYK [YOR032C 88-101] showed a normalised SPOT signal, Boehringer light units (BLU); mean over the file's lines of this peptide of 318.
IARPLSVPGSPKVR [YFR015C 646-659] returned a normalised SPOT signal, Boehringer light units (BLU); mean over the file's lines of this peptide of 383.
In the case of IERVWNGPVEPSDE [YIL067C 73-86] it was 180; in that of HPHPHPHPHTPTHT [YHR217C 23-36], 238; in that of IAKPYVLPFFPLYA [YEL031W 24-37], 247.
The same measure for IEITHSEPAIPYRE [YNL163C 742-755]: 114; for HPYMMVYPMSPPPP [YHL024W 649-662]: 563; for IATMYPIPAYPDLL [YJL127C 53-66]: 96.9.
In turn, ILIFLWIPDDPSKA [YJR152W 263-276] registered a normalised SPOT signal, Boehringer light units (BLU); mean over the file's lines of this peptide of 1370.
In turn, IAESLGVPWEPVDL [YGR088W 547-560] had a normalised SPOT signal, Boehringer light units (BLU); mean over the file's lines of this peptide of 143.
In the case of IEEGHLDPEAPDKL [YOR301W 105-118] it was 84.8.
The molecule IFFKLIHPFLPILH [YIR023W 322-335] gave a normalised SPOT signal, Boehringer light units (BLU); mean over the file's lines of this peptide of 503.
In the case of IFQSLLHPELPIII [YPR169W 50-63] it was 240; in that of HPEYLSLPFEPYSF [YLR054C 108-121], 213.
ILHQLGAPSIPENL [YBL004W 2280-2293]: the normalised SPOT signal, Boehringer light units (BLU); mean over the file's lines of this peptide is 174.
The same measure for IAGMLMVPESPRFL [YMR011W 241-254]: 255; for IEFDLSKPFTPFQQ [YGL173C 578-591]: 134.
In the case of HPSGLNSPKLPPLP [YNL152W 370-383] it was 457.
The same measure for IARSFTIPFLPKIP [YLR164W 20-33]: 204.
